Test results as given in patent US20070110757A1.

These binders were tested against RSV F protein on respiratory syncytial virus (RSV-Long strain) (respiratory syncytial virus (Long strain)) (UniProt P12568) (assay: cell-based or functional assay).
Sequence of RSV F protein on respiratory syncytial virus (RSV-Long strain) (respiratory syncytial virus (Long strain)) (P12568 26-574): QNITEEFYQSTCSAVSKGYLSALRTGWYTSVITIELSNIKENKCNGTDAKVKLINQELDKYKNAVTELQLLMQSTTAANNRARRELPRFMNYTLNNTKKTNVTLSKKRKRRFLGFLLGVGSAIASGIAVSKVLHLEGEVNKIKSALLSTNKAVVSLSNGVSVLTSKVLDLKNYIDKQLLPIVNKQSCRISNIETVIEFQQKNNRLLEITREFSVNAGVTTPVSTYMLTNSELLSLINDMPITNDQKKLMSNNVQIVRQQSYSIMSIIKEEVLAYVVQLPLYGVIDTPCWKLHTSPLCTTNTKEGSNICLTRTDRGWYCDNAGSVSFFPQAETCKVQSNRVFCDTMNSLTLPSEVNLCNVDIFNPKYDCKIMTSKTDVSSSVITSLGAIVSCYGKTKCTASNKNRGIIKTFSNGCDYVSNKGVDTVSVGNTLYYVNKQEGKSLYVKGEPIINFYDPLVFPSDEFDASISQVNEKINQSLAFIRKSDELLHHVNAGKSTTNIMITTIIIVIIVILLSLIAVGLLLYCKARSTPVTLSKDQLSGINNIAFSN

| Binder | Fold Difference (Control IC50) | Fold Difference (Curve IC50) | Mean IC50 (Control), RSV microneutralization | Mean IC50 (Curve), RSV microneutralization |
| --- | --- | --- | --- | --- |
| A4B4 Fab fragment (Fab, V domains shown) VH: QVTLRESGPALVKPTQTLTLTCTFSGFSLSTAGMSVGWIRQPPGKALEWLADIWWDDKKHYNPSLKDRLTISKDTSKNQVVLKVTNMDPADTATYYCARDMIFNFYFDVWGQGTTVTVSS VL: DIQMTQSPSTLSASVGDRVTITCSASSRVGYMHWYQQKPGKAPKLLIYDTFFLDSGVPSRFSGSGSGTEFTLTISSLQPDDFATYYCFQGSGYPFTFGGGTKVEIK | 13 fold | 11 fold | 0.0411 µg/mL | 0.0414 µg/mL |
| A13a11 Fab fragment (Fab, V domains shown) VH: QVTLRESGPALVKPTQTLTLTCTFSGFSLSTAGMSVGWIRQPPGKALEWLADIWWDDKKHYNPSLKDRLTISKDTSKNQVVLKVTNMDPADTATYYCARDMIFNWYFDVWGQGTTVTVSS VL: DIQMTQSPSTLSASVGDRVTITCSPSSRVGYMHWYQQKPGKAPKLLIYDTYRHSSGVPSRFSGSGSGTEFTLTISSLQPDDFATYYCFQGSGYPFTFGGGTKVEIK | 5 fold | 4 fold | 0.102 µg/mL | 0.12 µg/mL |
| A1h5 Fab fragment (Fab, V domains shown) VH: QVTLRESGPALVKPTQTLTLTCTFSGFSLSTAGMSVGWIRQPPGKALEWLADIWWDGKKHYNPSLKDRLTISKDTSKNQVVLKVTNMDPADTATYYCARDMIFNWYFDVWGQGTTVTVSS VL: DIQMTQSPSTLSASVGDRVTITCSLSSSVGYMHWYQQKPGKAPKLLIYDTFFHRSGVPSRFSGSGSGTEFTLTISSLQPDDFATYYCFQGSGYPFTFGGGTKVEIK | 3 fold | 2 fold | 0.176 µg/mL | 0.194 µg/mL |
